Sequences and labels used below:
B1: LINE1-full (parent)
chain: UACGUAGGUGGUUUUCCCCUGAUAGUGCUAAGGGGGCCUGGAAGUUUGGACUGGGCAGAGCUCAACACAGCGUGGCAAAGUGGCUGUGGCUAGACUGCCUCUCUGGAUUCCUCGUCACUCAGCAGGGCAUCUCUGAGAGAAAUGCC

In this series the parent is B1. Kind of series: self-cleavage, relative activity (ratio to wild type); higher = more cleavage; in vitro, sequencing; the parent is a self-cleaving ribozyme.
As to U39A A124U, the self-cleavage worked out at 1.61.
Next, G34A G82U: 2.19; C37G A43G: 1.36.
With G35U U102A, the self-cleavage worked out at 1.8.
For G35U U102C, the self-cleavage stood at 1.73.
Then G34U A92G, with 0.14; and C37A G40U, with 1.04.
As to C38U A64U, the self-cleavage was 0.35.
As for C38U A64G, the self-cleavage came to 0.17.
Take G34C U130C: the self-cleavage worked out at 0.88.
Then G36C U85C, with 0.16; and G35A U45C, with 0.97.
For the variant C37U U108A, the self-cleavage was 1.01.
Then G34U C90U, with 0.
C38U G74A: the self-cleavage turned out to be 1.27.
Turning to C37U A129U, the self-cleavage came out at 0.45.
Then G34A G126A, with 1.68; and G35U A124G, with 0.68.
Then G36C U143C, with 1.43; and G36A C118G, with 1.04; and U39A C116A, with 1.38.
As to G36C A57G, the self-cleavage stood at 0.9.
Then G36C A57U, with 0.07; and G35U A79G, with 1.22.
Next, U39A A42U: 1.35.
Next, U39A A42G: 1.21.
As for G36A C38A, the self-cleavage came to 1.18.
Then C38A A64G, with 0.18; and C37G A57U, with 0.1.
Then C37G A57G, with 0.73.
Next, G35A U85C: 0.09.
G35U A50U: the self-cleavage was determined as 0.57.
Next, C38U U46C: 1.51; U39A G53A: 1.33.
Then U39A A117U, with 1.63; and G35A G36C, with 1.05.
As to G35U G55U, the self-cleavage is 0.72.
Consider C38U U112C, for which the self-cleavage was found to be 1.35.
Next, C38U A57U: 0.15.
Then U39A A64U, with 0.47.
As to U39A A64G, the self-cleavage was found to be 0.21.
Next, G35U U104C: 0.8.
Next, G36A A141G: 1.38.
Then C38U A67U, with 0.07; and C38U A67G, with 0.42.
For G36A U112C, the self-cleavage is 1.29.
Then G36U A77G, with 2.39; and G35C U62C, with 0.06.
For the variant G35A A69U, the self-cleavage was 0.02.
Next, G35A A69G: 0.21.
Next, G36A U46C: 1.32; C37U C128A: 1.23; C37U G86A: 0.1.
Then G36A A124U, with 0.31; and G36A A124C, with 2.16; and G36A U130C, with 1.27.
On to G34A U143G, for which the self-cleavage stood at 1.64.
Then G35U G74A, with 1.22; and U39A C98U, with 0.45.
Next, C37G U91C: 0.32; G36A A42G: 1.07; G35A G83C: 0.71.
Take G34A U112C: the self-cleavage stood at 0.94.
Next, G36C C71G: 0.15; G34C A140U: 1.31.
With G34C A140C, the self-cleavage amounted to 1.79.
Then G34A A77U, with 1.33.
Next, C38U U134A: 1.23; G35A A92C: 0.05; C37G A121G: 1.23.
Next, C37A U39C: 1.35; G34A A129G: 1.08; G36U A140G: 1.18.
Consider C37U U85A, for which the self-cleavage worked out at 0.05.
Regarding G34A U73A, the self-cleavage stood at 0.8.
Next, G36U U62C: 0.02; G34A U46A: 1.2.
Then G34U U47G, with 1.04; and G35A C131U, with 1.67.
Consider C37U G55A, for which the self-cleavage is 0.12.
Then C38U C61G, with 0.02; and G35C, with 1.31.
Next, G35A: 1.1.
Next, G35U: 1.22.
Take G34A G54A: the self-cleavage was 0.78.
With C38U U85C, the self-cleavage was 0.15.
Next, C38A U39C: 1.77; C38U A107G: 1.63; G36A G40U: 0.66.
Then C38A A43G, with 0.59.
Take G36U U52C: the self-cleavage came to 1.19.
Next, C37G A92G: 0.04; G36A C113U: 1.02.
Next, G35U U100A: 0.78.
Next, G35C A94G: 0.14.
Consider G35A A64U, for which the self-cleavage worked out at 0.31.
Then G36A U143C, with 1.57; and G35U A77U, with 1.31; and C37A G88U, with 0.
Then G36U U104C, with 2.32; and G35C A141G, with 0.61; and C38U U100C, with 1.9.
G34U C146U: the self-cleavage came to 1.39.
Regarding G36A U52A, the self-cleavage was determined as 1.21.
Next, C37U A67G: 0.22.
Then G34U A94G, with 0.26; and C37U U62C, with 0.04; and C38A G97A, with 0.05.
Regarding G34C U73C, the self-cleavage is 1.82.
U39A G48A: the self-cleavage came out at 1.22.
Then G36C U87A, with 0.14.
Consider G36A A117G, for which the self-cleavage is 1.34.
For G35U G40A, the self-cleavage is 0.85.
With C38A A142G, the self-cleavage amounted to 0.64.
Next, G34U A140U: 1.64; G34U A140G: 1.67.
Then G36U A43U, with 1.24; and G35A A78G, with 0.9.
Then G36A G89U, with 0.01; and C37G A124G, with 1.61.
For the variant U39A C71U, the self-cleavage came out at 0.97.
C37U G40A: the self-cleavage came out at 0.68.
In the case of C37G A77U, the self-cleavage is 1.06.
Then G36C A77G, with 1.6; and G35U C145U, with 1.21; and G36A A79G, with 0.96.
Next, G35A U109A: 1.59.
With C37U U119A, the self-cleavage was 0.99.
Next, C38A U108A: 1.01; G36A C95G: 0.02.
Then G36A U109C, with 0.75.
Then C37U A78G, with 0.96; and G35U A141G, with 1.09.
On to G36C U104A, for which the self-cleavage is 1.43.
Then U39A A136U, with 1.52; and U39A A136G, with 1.49; and C38U U47G, with 0.78.
Next, C38U A121G: 1.72; G35U A117U: 1.04.
Regarding G35C A65G, the self-cleavage came out at 0.04.
Next, C38U A142G: 1.4; C38U A142U: 0.32; G35A A42G: 1.17.
Next, C37G U134C: 0.66; C37A A65G: 0.01.
Take G35A A136G: the self-cleavage came to 1.21.
Turning to G36U U96C, the self-cleavage turned out to be 0.07.
Next, G34U A69G: 0.47; G35U A138G: 1.47; U39A G70U: 0.05.
Then G35A U130A, with 1.1.
Next, U39A G49A: 1.06.
Turning to G35A U119C, the self-cleavage turned out to be 1.3.
Then G35C U46C, with 1.38; and C38U, with 1.33.
Then C38A, with 1.28.
Next, C38A G55C: 0.07.
For C38U U104C, the self-cleavage was 1.71.
Next, G35A G106A: 1.21; C38A A50G: 0.51; G36C U45C: 1.05.
As to G34A C66U, the self-cleavage was 0.05.
Next, C37G A141G: 1.66; U39A G80A: 2.24; C38A G44U: 1.48.
For C38G U39G, the self-cleavage was found to be 1.28.
Regarding G35U U130C, the self-cleavage came out at 1.74.

These data come from the RNAGym collection of RNA variant scans (doi:10.7554/elife.90254).
